Measured values published in publication PMC2841635.

Target: purified tagged Ack1 (HA-tagged Ack1 in methods and Fig. S1B; Myc-tagged Ack1 in the results) (UniProt Q07912)
Experiment: co-IP; in vitro binding assay: 50 nM of purified Ack and AKT in mRLB (25 mM Tris pH 7.5, 175 mM NaCl, 1% Triton X-100, 10% glycerol), 30 mins at room temperature, then anti-Ack1 antibodies and Protein-A-sepharose overnight at 4°C; IB with anti-AKT antibody

UniProt Q07912, sequence (Q07912 whole entry): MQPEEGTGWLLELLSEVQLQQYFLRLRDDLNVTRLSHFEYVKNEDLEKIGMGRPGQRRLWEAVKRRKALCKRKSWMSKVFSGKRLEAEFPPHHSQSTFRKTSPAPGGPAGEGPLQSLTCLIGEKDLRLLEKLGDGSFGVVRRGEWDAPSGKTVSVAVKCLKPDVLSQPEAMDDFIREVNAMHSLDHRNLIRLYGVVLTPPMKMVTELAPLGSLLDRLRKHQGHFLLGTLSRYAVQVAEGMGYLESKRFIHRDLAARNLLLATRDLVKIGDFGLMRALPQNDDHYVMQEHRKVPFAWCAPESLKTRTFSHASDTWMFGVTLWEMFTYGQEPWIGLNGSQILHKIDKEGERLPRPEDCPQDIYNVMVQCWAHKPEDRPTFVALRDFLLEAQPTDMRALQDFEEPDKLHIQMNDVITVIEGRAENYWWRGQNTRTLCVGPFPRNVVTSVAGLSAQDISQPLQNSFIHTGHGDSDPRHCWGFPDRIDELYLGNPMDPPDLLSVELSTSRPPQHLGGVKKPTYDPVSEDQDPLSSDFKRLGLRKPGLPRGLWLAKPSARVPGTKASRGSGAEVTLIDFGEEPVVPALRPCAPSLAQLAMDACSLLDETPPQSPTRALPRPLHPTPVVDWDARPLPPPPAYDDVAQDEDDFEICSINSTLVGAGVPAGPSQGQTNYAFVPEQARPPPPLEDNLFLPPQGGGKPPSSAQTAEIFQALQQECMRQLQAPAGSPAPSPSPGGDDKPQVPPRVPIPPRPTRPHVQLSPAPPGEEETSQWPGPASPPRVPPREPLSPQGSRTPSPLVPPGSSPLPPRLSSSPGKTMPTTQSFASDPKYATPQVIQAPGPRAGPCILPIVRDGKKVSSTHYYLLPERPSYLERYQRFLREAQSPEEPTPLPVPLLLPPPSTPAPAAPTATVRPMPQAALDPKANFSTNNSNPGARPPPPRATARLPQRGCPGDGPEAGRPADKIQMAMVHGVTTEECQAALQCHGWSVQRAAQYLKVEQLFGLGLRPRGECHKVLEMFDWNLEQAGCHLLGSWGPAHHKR

percent of total AKT in complex with Ack1: 6.35%
Substance: HA-tagged AKT expressed in HEK293T/HEK293 cells (from UniProt P31749 1-480) (enzyme)
